Results published in US20230235070A1 (Pfizer, published 2023).

Target: T1, TNF-like ligand 1A (TL1A) (human, UniProt O95150 72-251)
T1 construct: Endogenous protein measured in patients' serum and biopsies by immunoprecipitation LC-MS/MS; also called TNFSF15; soluble TL1A
T1 sequence (looked up): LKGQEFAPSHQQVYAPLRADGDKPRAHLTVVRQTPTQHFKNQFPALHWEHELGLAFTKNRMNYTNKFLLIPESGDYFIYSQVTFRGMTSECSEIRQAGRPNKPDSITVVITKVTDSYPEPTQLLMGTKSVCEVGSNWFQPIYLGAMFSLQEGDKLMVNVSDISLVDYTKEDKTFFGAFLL
Assay: total soluble TL1A in serum of treated participants, immunoprecipitation LC-MS/MS (in vivo target engagement)
Experimental: An Immunoprecipitation LC-MS/MS assay has been developed and validated to measure total soluble TL1A in human serum. Total soluble TL1A is isolated from human serum using immuno-enrichment technology. The samples are incubated and shaken with a biotinylated anti-TL1A capture reagent at 4° C. overnight. Dynabeads MyOne C1 streptavidin-coupled magnetic beads are then added to each sample and incubated at room temperature for 1 h to extract TL1A bound to biotinylated capture antibody. The beads are then washed three times, followed by elution of total TL1A from the beads under acidic conditions. After addition of the extended sequence stable isotope labeled peptide (internal standard) to each sample, trypsin digestion is performed at 37° C. overnight. All sample processing is performed in a 96-well format on an automated liquid handling robot (Microlab STAR, Hamilton, Bonaduz, Switzerland). A 120 μL of the sample extract is injected onto a three-dimensional Dionex Ultimate 3000 nano-LC system, comprising a conventional flow immunoaffinity capture with custom 2.1 mm ID anti-peptide antibody column, and elution to 300 μm ID C18 trap column and 75 μm ID nano LC analytical column. […] One selected reaction monitoring transition for the signature peptide is used to quantify TL1A in the positive ion mode, and all data are normalized to the internal standard response. […]

B1: PF-06480605 (antibody, human IgG1, kappa, V domains shown)
VH: QVQLVQSGAEVKKPGASVKVSCKASGYDFTYYGISWVRQAPGQGLEWMGWISTYNGNTHYARMLQGRVTMTTDTSTRTAYMELRSLRSDDTAVYYCARENYYGSGAYRGGMDVWGQGTTVTVSS
VL: EIVLTQSPATLSLSPGERATLSCRASQSVSSYLAWYQQKPGQAPRLLIYDASNRATGIPARFSGSGSGTDFTLTISSLEPEDFAVYYCQQRSNWPWTFGQGTKVEIKR
notes: The embodiments and claims number differently (1 = VH, 2 = VL, 9 = HC, 10 = LC); also called anti-TL1A
- binding result: binds
